These results are taken from patent US12723078 (University of Texas, dated 2026).

The target in the assay is T1, human LILRB1 recombinant protein (human, UniProt Q8NHL6 24-461).
T1 construct: The ELISA method says only 'LILRB1 recombinant proteins' coated on plates; also called leukocyte immunoglobulin-like receptor subfamily B member 1
In words: ELISA, B cell supernatant.

T1 sequence (Q8NHL6 24-461 limits assumed): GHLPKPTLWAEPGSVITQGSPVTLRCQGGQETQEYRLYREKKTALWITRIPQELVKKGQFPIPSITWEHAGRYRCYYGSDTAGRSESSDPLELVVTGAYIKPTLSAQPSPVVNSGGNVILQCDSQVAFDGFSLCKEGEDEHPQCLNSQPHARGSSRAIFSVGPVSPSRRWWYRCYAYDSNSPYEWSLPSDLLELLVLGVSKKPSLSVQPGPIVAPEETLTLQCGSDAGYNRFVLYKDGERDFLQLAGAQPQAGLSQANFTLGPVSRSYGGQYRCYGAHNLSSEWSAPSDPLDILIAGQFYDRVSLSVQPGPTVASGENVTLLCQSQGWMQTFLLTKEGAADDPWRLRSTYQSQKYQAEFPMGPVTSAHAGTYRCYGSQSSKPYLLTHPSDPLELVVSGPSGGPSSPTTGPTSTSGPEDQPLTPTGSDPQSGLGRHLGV

B1: mAb of B cell clone 210 (supernatant) (antibody, V domains shown)
VH: QSVEESEGRLVTPGGSLTLTCTVSGIDLSSYAMGWVRQAPGKGLEWIGVIGKSGTTYYANWAKGRFTISKTSTTVDLQIASPTTEDTATYFCARAGASRSIYYDLWGQGTLVTISS
VL: ELVLTQTPSSKSVAVGDTVTINCQASESVYGNNRCSWYQQKPGQPPKLLIYQASTLASGVPSRFSGSGSGTQFTLTISDVVCDDAATYYCAGHKGTTNDGNDFGGGTEVEIK
notes: rabbit; also called B1-#210
Take B1: the OD450 came out at 1.75 OD450.

B2: mAb of B cell clone 221 (supernatant) (antibody, V domains shown)
VH: QSLEESGGDLVKPGASLTLTCTASGFSFSSSYYMCWVRQAPGKGLEWIACIYGGSTGTTYYASWAKGRFTISKTSSTTVTLQMTSLTGADTATYFCARSYNSASSGYYWDLWGPGTLVTVSS
VL: ELDLTQTPSSVEAAVGGTVTIKCQASQSIGSNLAWYQQKPGQPPKVLIYKASTLASGVPSRFKGSGSGTQFTLTISDLECADAATYYCQNNNYWSNGNHFGGGTEVVVK
notes: rabbit
As to B2, the OD450 is 1.64 OD450.

B3: mAb of B cell clone 209 (supernatant) (antibody, V domains shown)
VH: SQSVEESGGDLVKPGGTLTLTCTASRIDLNNYYYISWVRQAPGKGLEWIGVVATDSSVTWYASWAKGQFTISKTSSTTVTLQMTSLTAADTATYFCARGSGAATNGVWWVMGDGMDLWGPGTLVTVSS
VL: ELVMTQTPASVSEPVGGTVTIKCQASQSISSYLSWYQQKPGQPPKRLIYKASTLASGVPSRFKGSGSGTEFTLTISGVQCADAATYYCQNNYHSGSSNGGGFAFGGGTEVEIK
notes: rabbit
Take B3: the OD450 amounted to 2.18 OD450.

B4: mAb of B cell clone 15 (supernatant) (antibody, V domains shown)
VH: EQSVEESGGDLVKPGASLTLTCTASGFSSSSSAYMCWVRQAPGKGLEWIACIFIGSGSDSYYATWAKGRFTISKTSSTTVTLQMTSLTAADTATYFCARNTYDWNGYIYGPCYFGLWGPGTLVTISS
VL: ELDLTQTPSSVEAAVGGTVTIKCQASQSIYNYLAWYQQKPGHSPKLLIYDVSKLASGVSSRFKGSGSGTEFTLTISDLECADAATYYCQSYYGNTVSFTFGGGTEVEIK
notes: rabbit; also called B1-#15
Consider B4, for which the OD450 was determined as 2.5 OD450.

B5: mAb of B cell clone 196 (supernatant) (antibody, V domains shown)
VH: QEQLVESGGGLVQPEGSLTLTCTDSGFSFTKNYYMCWVRQAPGKGLEWIGCIYAGSTNTFYASWAKGRFTISKASSTTVDLKMTSLTVADTATYFCARDFVSYLNLWGPGTLVTVSS
VL: ELDMTQTPSSTSAAVGGTVTIKCQASQSVYNNNQLSWFQQKPGQPPKRLIYGASTLESGVPSRFSGSGSGTQFTLTISDLECDDAATYYCQGAVSSDYYPFGGGTEVEIK
notes: rabbit
As to B5, the OD450 worked out at 2.27 OD450.

B6: mAb of B cell clone 226 (supernatant) (antibody, V domains shown)
VH: QEQLVESGGGLVQPEGSLTLTCTASGFSFSSRQYISWVRRAPGKGLEWIGAIVTVNNKVHYANWAKGRFTISEASSTTVTLQMTSLTAADTATYFCARWRTFGLWGPGTLVTVSS
VL: ELVLTQTPSSKSVAVGDTVTINCQASENVYSNNYTSWFQQKPGQPPKQLLYYAAYRASGVPSRFKGSGSGTEFTLSISDVVCDDAATYYCSGHKDYSDDGSTFGGGTEVVVK
notes: rabbit
For B6, the OD450 was 2.38 OD450.

B7: mAb of B cell clone 19 (supernatant) (antibody, V domains shown)
VH: EQSVEESGGGLVKPEGSLTLTCKASGLDFSSSYWSCWVRQTPGRGLEWIGCIDVGSSGGSYYASWARGRFTVSKGSSTTVTLQMTSLTAADTATYFCASTTTNVFGYDLWGPGTLVTVSS
VL: ELDLTQTPASVSEPVGGTVTIKCQASQNIYNNLAWYQQKPGQPPKLLIYYASTLASGVPPRFSGSGSGTEYTLTISDLECDDAATYYCQNNAGIYGGYGHGFGGGTEVVVK
notes: rabbit; also called B1-#19
In the case of B7, the OD450 is 2.32 OD450.

B8: mAb of B cell clone 7 (supernatant) (antibody, V domains shown)
VH: EQSLEESGGGLVKPGASLTVTCAVSGFSLNSYAITWVRQAPGKGLEYIGYIDTGASITDYASWAKGRFTISKTSSTTVTLEMTSLTDADTATYFCARGFSMFKLWGPGTLVTISS
VL: ELDLTQTPSSVSAAVGGTVTISCQASQSVYGNNRLAWYHQKPGQPPKRLIYLASTLDSGVPSRFKGAGSGTQFTLTISDLECDDAATYYCAGGYAGNFNAFGGGTEVEIK
notes: rabbit; also called B1-#7
Consider B8, for which the OD450 came out at 2.4 OD450.

B9: mAb of B cell clone 198 (supernatant) (antibody, V domains shown)
VH: QSLEESGGGLVKPEGSLTLTCTASGFDLSNNYYICWVRQAPGKGLELIACVDSDLTDSADYASWAKGRFTISKTSSTTVTLQMTSLTAADTATYFCAGSGSGYYYYYGMDLWGPGTLVTISS
VL: ELDMTQTPASVSEPVGGTVTIKCQASQSIGSYLAWYQQKPGQPPKLLAFYASTLKSGVPPRFKGSGSGTEFTLTISDLECADAATYYCQSNRLSSSDVNAFGGGTEVEIK
notes: rabbit
With B9, the OD450 was determined as 2.28 OD450.

B10: mAb of B cell clone 224 (supernatant) (antibody, V domains shown)
VH: EQSVEESGGGLVQPEGSLTLTCTASGIDFSSGAWICWVRQAPGKGLELIACIFTTSGFTYYASWAKGRFTISKTSSTTVTLQMTSLTAADTATYFCARDIYSYGMDLWGPGTLVTISS
VL: ELVLTQTPSSVSEPVGGTVTIKCQASQSISSSYLAWYQQKPGQPPKFLIYSASTLASGVPSRFKGSGSGTEFTLTISDLECADAATYYCQSTYISSSNYGAAFGGGTEVEIK
notes: rabbit
Turning to B10, the OD450 turned out to be 2.09 OD450.

B11: mAb of B cell clone 202 (supernatant) (antibody, V domains shown)
VH: SQSLEESGGGLVKPGASLTLTCKGSGFSFNGDYYMCWVRQTPGKGLEWIGCIYAAGDDTYYATWAKGRFTISKTSSTTVTLQMTSLTAADTATYFCARDQADSYAFGLWGPGTLVTISS
VL: ELVLTQTASPVSGAVGGTVTIKCQASQNIYSNLAWYQQKPGQPPKLLIYSASKLASGVPSRFKGSGSGTEYTLTISGVQCEDAATYYCQSYYYTASADTTFGGGTEVEIK
notes: rabbit
For B11, the OD450 amounted to 1.95 OD450.

B12: mAb of B cell clone 18 (supernatant) (antibody, V domains shown)
VH: EQSVKESGGGLVKPGGTLTLTCIVSGFSLSRYAVTWVRQAPGKGPEWIGYIDTSSGNKDYANWVNGRFTISKTSSTTVTLQMTSLTAADTATYFCARGFSMFKLWGPGTLVTISS
VL: ELVMTQTPSSVSAAVGGTVTISCQASQSVYNNNNLAWYQQKPGQPPKRLIYSASTLDSGVPSRFSGSGSGTQFTLTISDLECDDAATYYCAGGYTYNINIFGGGTEVEIK
notes: rabbit; also called B1-#18
As to B12, the OD450 came to 2.41 OD450.

B13: mAb of B cell clone 203 (supernatant) (antibody, V domains shown)
VH: QSLKESEGDLVKPGASLTLTCTASGFSFSSSYWICWVRQAPGKGLEWIACIYAGSSGSTYYASWAKGRFTISKTSSTTVTLEMTSLTDADTATYFCARGFSMFKLWGPGTLVTISS
VL: ELVLTQTPSSVEAAVGGTVTIKCQASQSIGSYLAWYQQKPGQPPKLLIYKASTLSSGVSSRYKGSGSGTEFTLTISDLECDDAATYYCQYTSYSSGGAFGGGTEVVVK
notes: rabbit
For B13, the OD450 came to 1.75 OD450.

B14: mAb of B cell clone 10 (supernatant) (antibody, V domains shown)
VH: EQSVEESGGGLVKPEGSLTLTCKASGLDFSSSYWICWVRQAPGKGLEWIACIDTGSSGSTYYASWAKGRFTVSKTSSTTVSLQMTSLTAADTATYFCASTPNSLGYDLWGPGTLVTISS
VL: ELDLTQTPASVSAAVGGTVTIKCQASQNIVSNLAWYQQKPGQRPKLLIYYASTLASGVPSRFKGSGSGTEYTLTISDLECADAATYYCQNNAGIYGNYGHGFGGGTELEIK
notes: rabbit; also called B1-#10
As for B14, the OD450 amounted to 2.17 OD450.

B15: mAb of B cell clone 220 (supernatant) (antibody, V domains shown)
VH: QSVEESGGGLVQPEGSLTLTCTASGFSFSGIVYMCWVRQAPGKGLEWIACAFVGSGGSTYYATWATGRFTISKTSSTTVTLQMTSLTAADTATYFCAKSYNYNGLGLWGPGTLVTVSS
VL: ELDMTQTPASVSAAVGGTVTIKCQASQSITNALAWYQQKPGQPPKLLIYRASTLASGVSSRFKGSGSGTEFTLTISDLECADAATYYCQCSYYGSTYFGSPFGGGTEVEIK
notes: rabbit; also called B1-#220
Turning to B15, the OD450 is 2.24 OD450.
